In ChEMBL document CHEMBL4304758, “Development of Peptide-Based Sirtuin Defatty-Acylase Inhibitors Identified by the Fluorescence Probe, SFP3, That Can Efficiently Measure Defatty-Acylase Activity of Sirtuin” (J Med Chem, 2019):

What was measured:
[1] = compound: CCCCCCCCCCCCCC(=S)NCCCC[C@H](NC(=O)[C@@H](NC(=O)[C@H](CCCNC(=N)N)NC(C)=O)[C@@H](C)CC)C(=O)N[C@@H](CCCNC(=N)N)C(=O)N[C@@H](Cc1ccc(O)cc1)C(N)=O; assay: Mixed-inhibition of recombinant human SIRT2 defatty-acylase activity assessed as substrate Km at 20 nM using varying levels of SFP3 as substrate measured at 1 min interval for 30 mins in presence of NAD+ by Michaelis-Menten plot analysis (reference value: 0.55 +/- 0.04 uM)
[2] = compound: CC[C@H](C)[C@H](NC(=O)[C@H](CCCNC(=N)N)NC(C)=O)C(=O)N[C@@H](CCCCNC(=O)Cc1ccc(/N=N/c2ccc(O)cc2)cc1)C(=O)N[C@@H](CCCNC(=N)N)C(=O)N[C@@H](Cc1ccc(O)cc1)C(N)=O; assay: as above
[3] = compound: CCCCCCCCCCCCCC(=S)NCCCC[C@H](NC(=O)[C@@H](NC(=O)[C@H](CCCNC(=N)N)NC(C)=O)[C@@H](C)CC)C(=O)N[C@@H](CCCNC(=N)N)C(=O)N[C@@H](Cc1ccc(O)cc1)C(N)=O; assay: Mixed-inhibition of recombinant human SIRT2 defatty-acylase activity assessed as substrate Km at 15 nM using varying levels of SFP3 as substrate measured at 1 min interval for 30 mins in presence of NAD+ by Michaelis-Menten plot analysis (reference value: 0.55 +/- 0.04 uM)
[4] = compound: CC[C@H](C)[C@H](NC(=O)[C@H](CCCNC(=N)N)NC(C)=O)C(=O)N[C@@H](CCCCNC(=O)Cc1ccc(/N=N/c2ccc(O)cc2)cc1)C(=O)N[C@@H](CCCNC(=N)N)C(=O)N[C@@H](Cc1ccc(O)cc1)C(N)=O; assay: as above
[5] = compound: CCCCCCCCCCCCCC(=S)NCCCC[C@H](NC(=O)[C@@H](NC(=O)[C@H](CCCNC(=N)N)NC(C)=O)[C@@H](C)CC)C(=O)N[C@@H](CCCNC(=N)N)C(=O)N[C@@H](Cc1ccc(O)cc1)C(N)=O; assay: Mixed-inhibition of recombinant human SIRT2 defatty-acylase activity assessed as substrate Km at 30 nM using varying levels of SFP3 as substrate measured at 1 min interval for 30 mins in presence of NAD+ by Michaelis-Menten plot analysis (reference value: 0.55 +/- 0.04 uM)
[6] = compound: CC[C@H](C)[C@H](NC(=O)[C@H](CCCNC(=N)N)NC(C)=O)C(=O)N[C@@H](CCCCNC(=O)Cc1ccc(/N=N/c2ccc(O)cc2)cc1)C(=O)N[C@@H](CCCNC(=N)N)C(=O)N[C@@H](Cc1ccc(O)cc1)C(N)=O; assay: as above

B1: NAD-dependent protein deacetylase sirtuin-2 (Homo sapiens), Q8IXJ6 (protein)
chain: MAEPDPSHPLETQAGKVQEAQDSDSDSEGGAAGGEADMDFLRNLFSQTLSLGSQKERLLDELTLEGVARYMQSERCRRVICLVGAGISTSAGIPDFRSPSTGLYDNLEKYHLPYPEAIFEISYFKKHPEPFFALAKELYPGQFKPTICHYFMRLLKDKGLLLRCYTQNIDTLERIAGLEQEDLVEAHGTFYTSHCVSASCRHEYPLSWMKEKIFSEVTPKCEDCQSLVKPDIVFFGESLPARFFSCMQSDFLKVDLLLVMGTSLQVQPFASLISKAPLSTPRLLINKEKAGQSDPFLGMIMGLGGGMDFDSKKAYRDVAWLGECDQGCLALAELLGWKKELEDLVRREHASIDAQSGAGVPNPSTSASPKKSPPPAKDEARTTEREKPQ
[1]
  Km: 0.48 µM
[2]
  Km: 1.1 µM
[3]
  Km: 0.47 µM
[4]
  Km: 0.76 µM
[5]
  Km: 1.1 µM
[6]
  Km: 2.5 µM
